Reference: patent US10874712B2, “Methods, compounds and compositions for modulating blood brain barrier integrity and re-myelination” (University Health Network, priority 2015, dated 2020)
“Also recorded” adds a separate entry of the source.

Legend:
[1] = tested on: blood brain barrier of mice; experiment: BBB permeability, Texas red dye leakage by widefield imaging; assay type: in vivo, mouse; conditions: mice injected with RGMa plus the agent
Description: Mice were treated with RGMa (70 ug), RGMa (70 ug)+RGMc (70 ug), or Vehicle (1% BSA) 18 h prior to widefield imaging (100-300 ms exposure) prior to and following intravenous injection of Texas Red dye (0.5 mg) over time. […] (B) Quantification of the leakage of Texas Red dye (measured as the number of leakage sites/mm^2).
BBB integrity was assessed in mice treated with PBS (Vehicle), RGMa, RGMc, RGMa+ immunoglobulin domain of Neogenin (4Ig). Widefield imaging was then carried out under a Olympus microscope (BX6 1WI) prior to and following the injection of Texas red dye (100 uL, I.V., 5 mg/ml) using 100-300 ms exposure. Recording was performed from 0 min to 35 min following injection. Texas dye leakage was also assessed in RGMc knockout (KO) and wild type (WT) mice. The leakage of Texas-red dye was quantified by a blind experimenter measuring the number of leakage sites/mm^2. (A) Representative images of Texas red dye: PBS (Vehicle), RGMa, RGMa+RGMc and RGMa+4Ig (immunoglobulin domain of Neogenin). Quantification of the leakage of Texas Red dye in animals treated with (B) PBS (Vehicle), RGMa or RGMa+RGMc or in RGMc KO and WT mice or (C) PBS (Vehicle), RGMa, RGMa+RGMc or RGMa+4Ig.
Mice injected with BSA, RGMc, RGMa, or RGMa+RGMc. […] Leakage of Texas red dye was quantified by a blind experimenter measuring the number of leakage sites/mm^2. […]

[2] = tested on: EAE-induced mice; experiment: Experimental Autoimmune Encephalomyelitis (EAE) mouse model, body condition score; assay type: in vivo; set-up: clinical severity (body condition score): dose or concentration left out as unconfirmed
[3] = biological target: T1, Neogenin (Homo sapiens, UniProt Q92859); experiment: In vitro competition binding assay (AP-tagged proteins); conditions: competition assay, FIG. 6C
T1 construct: His-tagged proteins (2.5 μg/mL of extracellular-Neogenin or sRGMa or sRGMc) were then coated onto each well; His tag (coated format); Alkaline phosphatase (AP) fusion (solution format, Ec-Neogenin-AP); made in house
T1 sequence (Q92859 34-1105 limits assumed): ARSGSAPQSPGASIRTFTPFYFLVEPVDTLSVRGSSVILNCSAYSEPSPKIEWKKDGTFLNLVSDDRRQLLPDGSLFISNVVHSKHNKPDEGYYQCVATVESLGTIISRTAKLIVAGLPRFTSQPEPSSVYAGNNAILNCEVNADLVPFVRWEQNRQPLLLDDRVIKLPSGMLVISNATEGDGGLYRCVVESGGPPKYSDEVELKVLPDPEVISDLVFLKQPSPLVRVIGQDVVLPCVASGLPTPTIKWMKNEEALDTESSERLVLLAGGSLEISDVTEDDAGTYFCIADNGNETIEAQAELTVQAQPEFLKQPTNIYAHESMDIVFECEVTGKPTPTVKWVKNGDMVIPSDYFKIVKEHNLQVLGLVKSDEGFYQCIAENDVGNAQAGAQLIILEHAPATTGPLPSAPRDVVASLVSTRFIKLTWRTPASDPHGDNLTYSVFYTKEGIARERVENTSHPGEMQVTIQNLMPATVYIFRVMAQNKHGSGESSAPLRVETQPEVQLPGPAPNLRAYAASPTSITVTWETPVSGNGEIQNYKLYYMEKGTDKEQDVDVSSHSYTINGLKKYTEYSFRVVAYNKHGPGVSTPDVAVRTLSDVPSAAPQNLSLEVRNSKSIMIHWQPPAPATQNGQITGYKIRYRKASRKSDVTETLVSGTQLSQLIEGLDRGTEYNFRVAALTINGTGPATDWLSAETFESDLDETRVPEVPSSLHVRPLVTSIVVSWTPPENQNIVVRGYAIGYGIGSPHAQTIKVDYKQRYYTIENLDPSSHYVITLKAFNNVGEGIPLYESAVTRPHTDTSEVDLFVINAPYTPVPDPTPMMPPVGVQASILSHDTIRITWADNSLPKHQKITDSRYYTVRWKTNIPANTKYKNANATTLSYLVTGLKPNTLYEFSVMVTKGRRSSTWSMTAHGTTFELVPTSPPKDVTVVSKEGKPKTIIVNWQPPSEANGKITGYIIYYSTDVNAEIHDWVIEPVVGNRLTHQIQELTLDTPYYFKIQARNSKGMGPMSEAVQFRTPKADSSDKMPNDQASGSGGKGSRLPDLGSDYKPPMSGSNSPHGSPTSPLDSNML
Description: (C) Binding of Neogenin to bovine serum albumin (Neogenin+BSA), to RGMa (Neogenin+RGMa), and to RGMc (Neogenin+RGMc) in RGMa-AP and in RGMc-AP. Constructs overexpressing His-tagged sRGMa, sRGMc and the extracellular domains of Neogenin (Ec-Neogenin) were coated onto Poly-L-Lysine coated wells. Alkaline Phosphatase (AP)-tagged proteins (EC-Neogenin or RGMa or RGMc) were then added to each well and incubated at 37° C. for 1 h. Each well was washed and equilibrated with AP developing buffer (100 mM NaHCO3, 1 mM MgCl2). The reaction was initiated using AP developing buffer supplemented with p-nitrophenyl phosphate and then stopped following color development by adding 50 μl (0.1M) NaOH. The absorbance of each reaction was measured using a microplate autoreader at 405 nm as described in the Examples. (D) Binding of Neogenin-AP to bovine serum albumin (Neogenin-AP+BSA), to RGMa (Neogenin-AP+RGMa), and to RGMc (Neogenin-AP+RGMc). Competition assay was performed as described in the Examples and above but in which the constructs were reversed.
Using a 96-well microtiter plate (Corning), wells coated with 100 μl (10 μg/mL) of Poly-L-Lysine (Sigma-Aldrich) incubated at 4° C. overnight were then washed 3× with 100 μl of PBST (+0.02% Tween-20). […] The absorbance of each reaction was measured using a microplate autoreader (BioTek EL311 AutoReader) at 405 nm.

[4] = tested on: EAE-induced mice; experiment: Histological staining (H&E, Luxol Fast Blue) of cervical spinal cord, inflammatory index; assay type: in vivo, mouse; conditions: EAE day 18; vs vehicle
Description: At day 18 post-EAE induction, mice were trans-cardially perfused with 20 mL PBS followed by 20 mL 4% paraformaldehyde in PBS (PFA) (Electron Microscopy Sciences) and 30 μm spinal cord cryosections were stained. The slides were washed in PBS for 3 min, followed by a 30 s wash in 50% ethanol (EtOH) and incubated overnight in Luxol Fast Blue (LFB) at 60° C. The sections were washed in 95% EtOH for 5 min, distilled water for 5 min prior to de-staining with […] for 10 min, and were then washed in 70% EtOH for 30 s, 5 min in MilliQ H2O, and sections were immersed in Harris Hematoxylin (Sigma-Aldrich) for 20 min and were rinsed in warm water to remove excess stain. Samples were dehydrated in 95% EtOH, immersed in alcoholic eosin Y (Sigma-Aldrich) for 15 s, dehydrated twice in 95% EtOH for 5 min, 100% EtOH for 5 min and xylene for 5 min. Slides were mounted with Permount (Fisher Scientific) and air-dried overnight at room temperature. Luxol Fast Blue (LFB) staining was quantified using relative staining intensity using Image J software. All intensities were normalized to a sham mouse spinal cord.
Cellular infiltration was quantified using an inflammatory index: 0, no inflammation; 1, cellular infiltration only in the perivascular areas and meninges; 2, mild cellular infiltration in the parenchyma (<10 cells); 3, moderate cellular infiltration in the parenchyma (10-49 cells); 4, moderate cellular infiltration in the parenchyma (50-99 cells); and 5, severe cellular infiltration in parenchyma (>100 cells).

[5] = tested on: rats subjected to MCAO; experiment: MCAO, neurological deficit (Bederson test); assay type: in vivo, rat; conditions: tail-vein injection of 70 μg, 7 day period, vs PBS
Description: In a separate experiment, whether RGMc treatment, which prevents BBB disruption following stroke, could lead to functional recovery (FIG. 25) was studied. Rats were subjected to MCAO and treated with either tail-vein injection of 70 μg of RGMc or control (PBS).

[6] = intra-peritoneal injections, vs vehicle

B1: sRGMc: truncated form of RGMc with the GPI anchor sequence removed, released as a soluble protein (SEQ ID NOs: 1 and 3) (protein, listed as Homo sapiens)
chain: CKILRCNAEYVSSTLSLRGGGSSGALRGGGGGGRGGGVGSGGLCRALRSYALCTRRTARTCRGDLAFHSAVHGIEDLMIQHNCSRQGPTAPPPPRGPALPGAGSGLPAPDPCDYEGRFSRLHGRPPGFLHCASFGDPHVRSFHHHFHTCRVQGAWPLLDNDFLFVQATSSPMALGANATATRKLTIIFKNMQECIDQKVYQAEVDNLPVAFEDGSINGGDRPGGSSLSIQTANPGNHVEIQAAYIGTTIIIRQTAGQLSFSIKVAEDVAMAFSAEQDLQLCVGGCPPSQRLSRSERNRRGAITIDTARRLCKEGLPVEDAYFHSCVFDVLISGDPNFTVAAQAALEDARAFLPDLEKLH
- RGMa-induced disruption of BBB integrity (Texas Red dye leakage) [1]: suppressed; also recorded: ameliorated
- disease severity [2, 6]: significantly abrogated disease severity
- incidence of EAE onset [2, 6]: decreased the incidence of EAE onset
- onset of disease [2, 6]: delayed the onset of disease
- day by which treated animals developed clinical symptoms ([2]; intravenous sRGMc at days 3, 6 and 9): ≤ 14 day post-induction
- clinical severity of the disease (body condition score) ([2]; intravenous sRGMc at days 3, 6 and 9 post-induction, vs vehicle, scored 18 days): significant decrease in clinical severity
- clinical severity (body condition score) ([2]; sRGMc every three days, vs PBS, FIG. 6B): markedly reduced
- interference with RGMa binding to Neogenin [3]: interferes with RGMa for its binding to Neogenin
- extent of cellular infiltrates in cervical spinal cord [4]: significantly reduced
- extent of de-myelination (Luxol Fast Blue) [4]: significantly reduced
- inflammatory index score [4]: significantly lower
- functional scores (Bederson test) [5]: significant (*p<0.05) improvement of functional scores
